Values quoted from earlier work as cited in patent publication US9782344B2, “Stable glucagon peptide formulations” (ZP Opco, Inc., priority 2013, dated 2017).
Where two headings read alike, the source gives them in different places.

## glucagon
pH below 3 or above 9
  behaviour in aqueous solution: readily dissolved
pH between 4 and 8
  behaviour in aqueous solution: precipitates readily
